T1: cynomolgus uPAR (recombinant) (cynomolgus monkey, UniProt Q9GK78 23-303, limits assumed)
T1 construct: also called cyno uPAR; AF647-cyno uPAR
T1 sequence (looked up): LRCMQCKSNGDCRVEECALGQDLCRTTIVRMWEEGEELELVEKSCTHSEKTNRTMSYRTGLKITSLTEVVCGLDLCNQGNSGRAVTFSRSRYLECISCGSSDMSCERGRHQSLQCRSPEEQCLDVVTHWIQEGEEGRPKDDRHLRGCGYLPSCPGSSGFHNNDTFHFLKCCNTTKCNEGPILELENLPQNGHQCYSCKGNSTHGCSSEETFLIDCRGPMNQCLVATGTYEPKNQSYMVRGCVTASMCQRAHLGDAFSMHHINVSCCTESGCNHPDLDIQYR


What was measured:
[1] = biological target: T2, human uPAR (recombinant protein used in ELISA and BLI) (human, UniProt Q03405 23-305, limits assumed); assay: BLI (Octet HTX); repeated row of the table
T2 construct: Whole entry named; also called biotinylated human uPAR
Protocol: (§1) Kinetic constant ranges for Octet HTX were between 1 mM to 10 pM.

[2] = biological target: T1, cynomolgus uPAR (recombinant); assay: BLI (Octet HTX); repeated row of the table
Protocol: as §1

[3] = biological target: T1, cynomolgus uPAR (recombinant); assay: ELISA, plate-coated cyno uPAR
Protocol: (§2) To ensure the cross-reactivity of the 12 lead candidates was maintained with the Herceptin constant region, their binding to human and cyno uPAR was evaluated by ELISA (FIG. 3A).
(§3) Nunc MaxiSorp™ flat-bottom 96-well plates were coated with human or cyno uPAR (3.19 μg/mL) at 4° C. overnight, and plates were washed with wash buffer and blocked with 5% non-fat dry milk. A standard log serial dilution of each antibody candidate was added to the uPAR-coated plates and incubated at 4° C. overnight. Plates were washed three times and incubated with 50 μL of HRP-conjugated goat anti-human (H+L) antibody (Biorad). After a two-hr incubation, plates were washed, and 100 μL of 1-Step™ Turbo TMB-ELISA Substrate Solution (Thermo Scientific) was added to each well. The reaction was quenched with 2M H₂SO₄ for 5 min at room temperature, and the optical density of each well was measured at 450 nm using a SpectraMax190 microplate reader.

[4] = biological target: T2, human uPAR (recombinant protein used in …); assay: ELISA, plate-coated human uPAR
Protocol: as §2, §3

[5] = biological target: T3, human uPAR displayed on the surface of MDA-MB-231 cells (human, UniProt Q03405 23-305); assay: flow cytometry (FACS) on MDA-MB-231 cells
T3 construct: whole, on cells; also called cell-surface uPAR; cellular uPAR
Source text: Antibodies generated by immunizing animals with suPAR, which lacks the cell surface anchoring motif, can target protein regions that are not accessible for membrane-bound uPAR. […] Thus, FACS was applied to evaluate the cell-surface uPAR recognition by each antibody candidate under different concentrations of MDA-MB-231 cells, a triple-negative breast cancer cell line with high uPAR expression (FIG. 2).
MDA-MB-231 cells were harvested with TrypleE and resuspended in FACS buffer (PBS+1% BSA) to 2×10⁶ cells/mL before being aliquoted to a 96-well plate (100 μL, 2×10⁵ cells/well). Cells were pelleted by centrifuging the microplate for 5 min at 400 RCF and resuspended in PBS containing serially diluted antibodies to a maximum concentration of 600 nM, followed by a 50 min incubation at 4° C. Cells were then washed three times with PBS and incubated with an AlexaFluor488-conjugated goat anti-human IgG for 50 min at 4° C. in the dark. Finally, cells were washed twice with FACS buffer and resuspended in 80 μL for FACS analysis in a Bio-rad S3e Cell Sorter.

[6] = biological target: T3, human uPAR displayed on the surface of …; assay: flow cytometry on MDA-MB-231 cells
[7] = biological target: T2, human uPAR (recombinant protein used in …); assay: BLI (Octet HTX)
Protocol: as §1

[8] = biological target: T1, cynomolgus uPAR (recombinant); assay: BLI (Octet HTX)
Protocol: as §1

[9] = biological target: T3, human uPAR displayed on the surface of …; assay: flow cytometry on MDA-MB-231 cells; repeated row of the table
[10] = biological target: T3, human uPAR displayed on the surface of …; assay: cell-based or functional assay
[11] = biological target: T3, human uPAR displayed on the surface of …; assay: cell-based or functional assay; remark: listed apart in the source

T2 sequence (Q03405 23-305 limits assumed): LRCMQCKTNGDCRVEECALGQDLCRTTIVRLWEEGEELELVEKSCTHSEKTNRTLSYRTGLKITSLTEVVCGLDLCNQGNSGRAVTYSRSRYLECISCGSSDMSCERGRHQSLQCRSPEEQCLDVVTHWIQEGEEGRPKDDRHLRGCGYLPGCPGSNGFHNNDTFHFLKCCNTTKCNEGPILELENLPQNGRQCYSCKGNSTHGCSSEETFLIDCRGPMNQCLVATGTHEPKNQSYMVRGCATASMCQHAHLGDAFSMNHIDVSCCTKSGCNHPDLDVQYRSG
T3 sequence (Q03405 23-305): as the sequence (Q03405 23-305 limits assumed) above

Binder	Kd [1]	Kd [2]	EC50 [3]	EC50 [4]	Cellular recognition Max % [5]	EC50 [5]	EC50 [6]	Kd [7]	Kd [8]	EC50 [9]	ADC Cytotoxicity EC50 [10]	ADC Cytotoxicity Max % [10]	ADCC NK-92 EC50 [10]	ADCC NK-92 Max % [10]	ADCC PBMCs EC50 [10]	ADCC PBMCs Max % [10]	Adhesion blocking EC50 [10]	ADCC PBMCs EC50, fold lower than 2G10 [11]
Antibody 11857 (antibody, human IgG1, V domains shown) VH: EVQLRQSGPELVKPGASVKISCKASGYTFTDYYMNWVKQSHEKSLEWIGNINPNNGGTDYNQKFKGKATLTVDKSSSTAYMELRSLTSEDSAVYYCARSYGSRFPYWGLGTLVTVSA VL: DIQMTQTTSSLSASLGDRVTISCRASQDITNYLSWYQQKPDGTVKLLIFYTAVLQSGFPLRFSGSGSGADYSLTISNLEQEDFATYFCQQGHTLPWTFGGGTKLEIK	6.37 nM	8.48 nM	0.18 nM	0.52 nM	1940%	2.07 nM	0.545 µg/mL	6.37 nM	8.48 nM	0.545 µg/mL	0.76 nM	35.2%	5.59 nM	27.2%	0.35 nM	52%	940 nM	
Antibody 8163 (antibody, human IgG1, V domains shown, Chimeric: mouse VH/VL linked to Herceptin (trastuzumab) human IgG1 / kappa constant regions) VH: EVQLVESGGGLVQPGESLTLSCDSNEFDFPSHDMSWVRKTPEKRLELVAAIDSDGGLTYYSNSRERRFIISRDNTKNTLYLQMRSLRSEDTALYYCARRRASYWYFDVWGTGTTVTVSS VL: DILLTQSPAILPVSPGERVSFSCRASQNIGTSIHWYQQRTNGSPRLLIKYASESISGIPSRFSGSGSGTDFTLSINGVESEDIGDYYCQQSNSWPTFGGGTKLEIK			0.15 nM	0.41 nM	2330%	0.69 nM					0.57 nM	28.7%	1.14 nM	18.8%	0.09 nM	57.5%	5400 nM	10 to 96 fold

Reference: patent US20260116983A1 (University of California, published 2026)
